The values that follow come from patent US20230183318A1.

The target of the experiment is PD-L1. Briefly: -; literature value (Cheng et al., 2013).

What is called Kd is the equilibrium constant for the complex coming apart.

In turn, PD-1 WT had a Kd of 8.2 µM.
